# Test results as given in article PMC6733935, “A convenient and efficient total solid-phase synthesis of DOTA-functionalized tumor-targeting peptides for PET imaging of cancer” (EJNMMI Research, 2019).
# Square brackets hold non-standard residues; d marks the D form. Peptide text beside a SMILES is read from it. * marks the point of attachment. DOTA = O=C(O)CN1CCN(CC(=O)O)CCN(CC(=O)*)CCN(CC(=O)O)CC1; Cha = N[C@@H](CC1CCCCC1)C(=O)O; 4Abz = Nc1ccc(C(=O)O)cc1; Nle = CCCC[C@H](N)C(=O)O
# Assays:
# [1] = target: T1, BN/GRP receptor-positive T47D human breast cancer cells (Homo sapiens, UniProt P30550); assay: Saturation binding assay on T47D cells; conditions: n = 3-5 experiments, SD < 15%
# T1 construct: BN/GRP receptor-positive MDA-MB-231, MCF7, T47D human breast cancer, and PC3 human prostate cancer lines; host or cells: MDA-MB-231, MCF7, T47D (human breast cancer), PC3 (human prostate cancer); intact cells
# Experimental: (§1) The cell binding of ^68Ga-radiolabeled peptides into BN/GRP receptor-positive MDA-MB-231, MCF7, T47D human breast cancer, and PC3 human prostate cancer lines (American Type Culture Collection, Rockville, MD, USA) was performed according to the method described previously. In brief, ∼ 300,000 cells (in 300 μL in low-serum media) were incubated with various amounts of radiopeptides, ranging between 0.1 and 25 nM of peptide (prepared from the serial dilutions of HPLC-purified radiopeptides), in duplicate for 60 min at room temperature. The initial concentrations of ^68Ga-labeled peptides were determined according to a well-established HPLC technique with simultaneous detection by UV absorbance. As the amount of BN peptide in the reaction mixture was too small to be detected by UV absorption at 220 nm, the radioactive peptide chromatograms from the HPLC analysis were compared (with UV chromatograms) with those of known concentrations of the corresponding nonradioactive peptides for the mass determination. Incubation was terminated by dilution with cold saline (300 μL) and the cells were pelleted by centrifugation. The cell pellets was then rapidly washed with cold saline to remove any unbound peptide and centrifuged to collect supernatants. Radioactivity in the cell pellet and the washings was measured in a γ-counter. Non-specific binding was determined in the presence of ~ 200-fold molar excess of unlabeled BN peptide. Specific binding is calculated by subtracting the non-specifically bound radioactivity from that of the total binding. The dissociation constant (Kd) was calculated using a plot of cell bound activity versus the concentration of the radioligand using GraphPad Prism software (GraphPad Software Inc., San Diego, CA, USA).
# [2] = target: T2, BN/GRP receptor-positive PC3 human prostate cancer cells (Homo sapiens, UniProt P30550); assay: Saturation binding assay on PC3 cells; conditions: n = 3-5 experiments, SD < 15%
# T2 construct: BN/GRP receptor-positive MDA-MB-231, MCF7, T47D human breast cancer, and PC3 human prostate cancer lines; host or cells: MDA-MB-231, MCF7, T47D (human breast cancer), PC3 (human prostate cancer); intact cells
# Experimental: as §1
# MDA-MB-231 tumors = assay: in vivo; assay type: in vivo, nude mice; conditions: for Radioactivity in Urine + bladder / Uptake in Blood / Uptake in Intestines (measured without their contents) / Uptake in Kidneys / Uptake in Liver / Uptake in Lungs / Uptake in Muscle / Uptake in Pancreas / Uptake in Spleen / Uptake in Stomach: female, nude, mouse, in vivo; for Uptake in Tumor: nude mice with MDA-MB-231 tumors, mean ± SD, n = 3-5
# Experimental: BN/GRP receptor-positive MDA-MB-231 and PC3 cell lines (American Type Culture Collection, Rockville, USA) were grown as monolayers at 37 °C in a humidified atmosphere containing RPMI-1640 culture media with 10% fetal bovine serum (FBS) in tissue culture flasks. Twenty-four hours prior to conducting the tumor implantation, the media was replaced with RPMI-1640/10% FBS. The cells were grown to 80-90% confluency and harvested by trypsinization. After centrifugation, about 50 million cells were suspended in 1 mL media for implantation into mice. To prepare cells for inoculation, MDA-MB-231 or PC3 cancer cells with media were centrifuged, the media decanted, and the cell pellet was mixed with phosphate-buffered saline (PBS) to reach a concentration of approximately 5 million cells per 100 μL PBS. Human MDA-MB-231 breast cancer xenografts female mouse models were used for in vivo tumor-targeting experiments. For the implantation of tumor xenografts, approximately five million MDA-MB-231 cells in suspension of 100 μL sterile PBS were injected subcutaneously into the left thigh of each mouse. Tumors were allowed to grow for 4-6 weeks by which tumors had reached weights of 200-300 mg. After sufficient growth of tumors, animals were injected with 20-30 μCi of the radiotracers and the animals were sacrificed at specified time points. The uptake of ^68Ga-radiolabeled peptides in the tumors and other major body organs was calculated by γ-counting as described above.
# in vivo = assay: in vivo; set-up: species or system Balb/c mice; conditions: Balb/c, mouse, iv
# Experimental: Approval for the animal protocol used in this study was obtained from the Institutional Animal Care and Use Committee. Animal studies were conducted according to the international regulations governing the safe and proper use of laboratory animals. In vivo biodistribution were performed on healthy Balb/c mice (n = 3–5 in each group, body weight 19–22 g) at 1 and 2 h after intravenous injection of the HPLC-purified radiopeptide (100 μL, 15–20 μCi, total peptide dose ~ 20 ng) via the lateral tail vein. The mice were sacrificed by cervical dislocation at specified time points and blood samples were withdrawn with a syringe from the heart. Major organs such as lungs, stomach, spleen, pancreas, intestines, liver, kidneys, etc. were isolated, weighed, and radioactivity in each organs and tissues were measured using a γ-scintillation counter. Uptake of radioactivity in the tissues and organs was expressed as the percent injected dose per gram (% ID/g) of tissue/organ, which was calculated by comparison with standard solutions representing 10% of the injected dose per animal. For the clearance studies, radioactivity in the urine with bladder and feces is expressed as the percent of the injected dose per tissue (% ID). Values are expressed as mean ± SD for a group of 3-5 animals at each time point.
# [3] = total radioactivity, %ID excreted in Feces
# [4] = total radioactivity, Uptake in Bone
# [5] = total radioactivity, Uptake in Intestines (measured without their contents)
# [6] = total radioactivity, Uptake in Kidneys
# [7] = total radioactivity, Uptake in Pancreas
# [8] = total radioactivity, Uptake in Spleen
# [9] = total radioactivity, Uptake in Stomach
smiles,measurement,setting,value
"CCCC[C@H](NC(=O)[C@H](Cc1c[nH]cn1)NC(=O)[C@H](CC1CCCCC1)NC(=O)[C@@H](NC(=O)[C@H](C)NC(=O)[C@H](Cc1c[nH]c2ccccc12)NC(=O)[C@H](CCC(N)=O)NC(=O)[C@H](CS)NC(=O)CNC(=O)CNC(=O)c1ccc(NC(=O)CN2CCN(CC(=O)O)CCN(CC(=O)O)CCN(CC(=O)O)CC2)cc1)C(C)C)C(=O)N[C@@H](CCSC)C(N)=O [^68Ga-DOTA-Abz-BN Tris-, metal not drawn] ({DOTA-4Abz}-GGCQWAV[Cha]H[Nle]M-NH2)",Bmax (apparent number of binding sites per cell),[1],1.0 × 10^5 sites/cell
same,Bmax (apparent number of binding sites per cell),[2],5.90 × 10^5 sites/cell
same,Radioactivity in Urine + bladder,MDA-MB-231 tumors; 1 h,58.0 ± 6.25 % injected dose per tissue
same,Uptake in Blood,MDA-MB-231 tumors; 1 h,0.93 ± 0.22 % ID/g
same,Uptake in Intestines (measured without their contents),MDA-MB-231 tumors; 1 h,1.01 ± 0.17 % ID/g
same,Uptake in Kidneys,MDA-MB-231 tumors; 1 h,6.52 ± 0.60 % ID/g
same,Uptake in Liver,MDA-MB-231 tumors; 1 h,2.28 ± 0.31 % ID/g
same,Uptake in Lungs,MDA-MB-231 tumors; 1 h,1.82 ± 0.30 % ID/g
same,Uptake in Muscle,MDA-MB-231 tumors; 1 h,0.36 ± 0.07 % ID/g
same,Uptake in Pancreas,MDA-MB-231 tumors; 1 h,1.81 ± 0.22 % ID/g
same,Uptake in Spleen,MDA-MB-231 tumors; 1 h,0.18 ± 0.03 % ID/g
same,Uptake in Stomach,MDA-MB-231 tumors; 1 h,1.0 ± 0.20 % ID/g
same,Radioactivity in Urine + bladder,MDA-MB-231 tumors; 2 h,65.0 ± 9.13 % injected dose per tissue
same,Uptake in Blood,MDA-MB-231 tumors; 2 h,0.64 ± 0.16 % ID/g
same,Uptake in Intestines (measured without their contents),MDA-MB-231 tumors; 2 h,0.76 ± 0.12 % ID/g
same,Uptake in Kidneys,MDA-MB-231 tumors; 2 h,3.96 ± 0.48 % ID/g
same,Uptake in Liver,MDA-MB-231 tumors; 2 h,1.71 ± 0.20 % ID/g
same,Uptake in Lungs,MDA-MB-231 tumors; 2 h,1.26 ± 0.25 % ID/g
same,Uptake in Muscle,MDA-MB-231 tumors; 2 h,0.28 ± 0.04 % ID/g
same,Uptake in Pancreas,MDA-MB-231 tumors; 2 h,0.93 ± 0.15 % ID/g
same,Uptake in Spleen,MDA-MB-231 tumors; 2 h,0.09 ± 0.02 % ID/g
same,Uptake in Stomach,MDA-MB-231 tumors; 2 h,0.52 ± 0.13 % ID/g
same,Uptake in Tumor,MDA-MB-231 tumors; 1 h p.i.,2.15 ± 0.33 % ID/g
same,Uptake in Tumor,MDA-MB-231 tumors; 2 h p.i.,1.37 ± 0.25 % ID/g
same,%ID excreted in Feces,in vivo; 1 h,0.90 ± 0.10 %ID
same,%ID excreted in Urine,in vivo; 1 h,43.0 ± 8.70 %ID
same,Uptake in Blood,in vivo; 1 h,0.66 ± 0.13 %ID/g
same,Uptake in Bone,in vivo; 1 h,0.22 ± 0.05 %ID/g
same,Uptake in Intestines (measured without their contents),in vivo; 1 h,0.79 ± 0.16 %ID/g
same,Uptake in Kidneys,in vivo; 1 h,4.0 ± 0.82 %ID/g
same,Uptake in Liver,in vivo; 1 h,1.59 ± 0.23 %ID/g
same,Uptake in Lungs,in vivo; 1 h,0.58 ± 0.10 %ID/g
same,Uptake in Pancreas,in vivo; 1 h,1.48 ± 0.12 %ID/g
same,Uptake in Spleen,in vivo; 1 h,0.11 ± 0.01 %ID/g
same,Uptake in Stomach,in vivo; 1 h,1.82 ± 0.36 %ID/g
same,%ID excreted in Feces,in vivo; 2 h,0.59 ± 0.08 %ID
same,%ID excreted in Urine,in vivo; 2 h,50.0 ± 3.45 %ID
same,Uptake in Blood,in vivo; 2 h,0.31 ± 0.05 %ID/g
same,Uptake in Bone,in vivo; 2 h,0.12 ± 0.01 %ID/g
same,Uptake in Intestines (measured without their contents),in vivo; 2 h,0.61 ± 0.09 %ID/g
same,Uptake in Kidneys,in vivo; 2 h,2.86 ± 0.37 %ID/g
same,Uptake in Liver,in vivo; 2 h,0.91 ± 0.15 %ID/g
same,Uptake in Lungs,in vivo; 2 h,0.40 ± 0.08 %ID/g
same,Uptake in Pancreas,in vivo; 2 h,0.97 ± 0.05 %ID/g
same,Uptake in Spleen,in vivo; 2 h,0.10 ± 0.01 %ID/g
same,Uptake in Stomach,in vivo; 2 h,0.52 ± 0.12 %ID/g
"CCCC[C@H](NC(=O)[C@H](Cc1c[nH]cn1)NC(=O)[C@H](CC1CCCCC1)NC(=O)[C@@H](NC(=O)[C@H](C)NC(=O)[C@H](Cc1c[nH]c2ccccc12)NC(=O)[C@H](CCC(N)=O)NC(=O)[C@H](CS)NC(=O)CNC(=O)CNC(=O)c1ccc(NC(=O)CN2CCN(CC(=O)O)CCN(CC(=O)O)CCN(CC(=O)O)CC2)cc1)C(C)C)C(=O)N[C@@H](CCSC)C(N)=O [^68Ga-DOTA-Abz-BN Cyclen, metal not drawn] ({DOTA-4Abz}-GGCQWAV[Cha]H[Nle]M-NH2)",Bmax (apparent number of binding sites per cell),[1],1.17 × 10^5 sites/cell
same,Bmax (apparent number of binding sites per cell),[2],4.30 × 10^5 sites/cell
same,Uptake in Tumor,MDA-MB-231 tumors; 1 h p.i.,1.84 ± 0.40 % ID/g
same,Uptake in Tumor,MDA-MB-231 tumors; 2 h p.i.,1.30 ± 0.37 % ID/g
same,%ID excreted in Urine,in vivo; 1 h,70.0 ± 8.60 %ID
same,Uptake in Liver,in vivo; 1 h,0.68 ± 0.16 %ID/g
same,Uptake in Lungs,in vivo; 1 h,0.21 ± 0.05 %ID/g
same,dose excreted at 1 h,in vivo; [3],1.01 ± 0.2%
same,dose excreted at 2 h,in vivo; [3],0.88 ± 0.12%
same,dose excreted at 2 h,"in vivo; total radioactivity, %ID excreted in Urine",62 ± 9.54%
same,tissue uptake at 1 h,"in vivo; total radioactivity, Uptake in Blood",0.4 ± 0.11 %ID/g
same,tissue uptake at 1 h,in vivo; [4],0.13 ± 0.04 %ID/g
same,tissue uptake at 2 h,in vivo; [4],0.09 ± 0.01 %ID/g
same,tissue uptake at 1 h,in vivo; [5],0.85 ± 0.17 %ID/g
same,tissue uptake at 2 h,in vivo; [5],0.53 ± 0.14 %ID/g
same,tissue uptake at 1 h,in vivo; [6],2.96 ± 0.3 %ID/g
same,tissue uptake at 2 h,in vivo; [6],1.88 ± 0.25 %ID/g
same,tissue uptake at 2 h,"in vivo; total radioactivity, Uptake in Liver",0.5 ± 0.07 %ID/g
same,tissue uptake at 1 h,in vivo; [7],1.07 ± 0.13 %ID/g
same,tissue uptake at 2 h,in vivo; [7],0.88 ± 0.11 %ID/g
same,tissue uptake at 1 h,in vivo; [8],0.12 ± 0.02 %ID/g
same,tissue uptake at 2 h,in vivo; [8],0.07 ± 0.01 %ID/g
same,tissue uptake at 1 h,in vivo; [9],1.69 ± 0.24 %ID/g
same,tissue uptake at 2 h,in vivo; [9],0.45 ± 0.1 %ID/g
